Where two headings read alike, the source gives them in different places. No end group written: not given here.
Legend:
[1] = target: T1, His6-E6AP ligase (Homo sapiens, UniProt Q05086); assay: Static light-scattering of His6-E6AP ligase oligomer
T1 construct: Full-length recombinant His6-E6AP ligase was isolated from the medium; made in house; host or cells: Sf9 insect cells (baculovirus)
T1 sequence (Q05086 1-872 isoform Q05086-3): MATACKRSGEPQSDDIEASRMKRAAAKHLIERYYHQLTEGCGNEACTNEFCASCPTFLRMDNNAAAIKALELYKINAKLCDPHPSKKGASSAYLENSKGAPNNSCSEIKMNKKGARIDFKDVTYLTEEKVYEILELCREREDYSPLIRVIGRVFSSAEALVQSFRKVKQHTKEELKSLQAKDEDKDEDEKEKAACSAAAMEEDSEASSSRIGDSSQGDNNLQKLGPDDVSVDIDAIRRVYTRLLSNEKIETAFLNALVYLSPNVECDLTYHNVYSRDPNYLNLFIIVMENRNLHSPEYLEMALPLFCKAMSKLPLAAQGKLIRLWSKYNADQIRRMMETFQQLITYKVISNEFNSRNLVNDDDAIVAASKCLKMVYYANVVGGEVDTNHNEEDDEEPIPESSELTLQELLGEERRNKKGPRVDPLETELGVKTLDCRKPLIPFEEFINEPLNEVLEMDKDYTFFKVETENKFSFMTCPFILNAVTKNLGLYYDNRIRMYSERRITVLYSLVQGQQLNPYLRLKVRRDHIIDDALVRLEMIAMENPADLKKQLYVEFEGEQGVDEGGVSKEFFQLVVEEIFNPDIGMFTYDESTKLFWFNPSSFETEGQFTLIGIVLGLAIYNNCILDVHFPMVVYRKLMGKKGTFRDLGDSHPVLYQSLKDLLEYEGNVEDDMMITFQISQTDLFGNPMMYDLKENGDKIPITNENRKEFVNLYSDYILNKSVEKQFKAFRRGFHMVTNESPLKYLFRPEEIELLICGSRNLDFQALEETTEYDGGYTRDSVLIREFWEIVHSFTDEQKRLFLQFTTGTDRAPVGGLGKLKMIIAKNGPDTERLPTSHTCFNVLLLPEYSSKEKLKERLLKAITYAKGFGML
Experimental: Static Light-scattering Measurements: His6-E6AP ligase after the His trap affinity purification step was further purified by FPLC using a Mono Q 5/50 column (Amersham Biosciences) equilibrated in 50 mM Tris-HCl (pH 7.5) and 1 mM DTT. Recombinant His6-E6AP ligase eluted at 300 mM NaCl in a 0-500 mM gradient (16 mM/ml, 1 ml/min). The molecular weight of His6-E6AP ligase was determined in solution at 37° C. by static light-scattering using a 235-DynaPro NanoStar laser light-scattering spectrometer at 663 nm wavelength (Wyatt Technology Corp.). Spectra were collected for 18 μM His6-E6AP ligase in 50 mM Tris-HCl (pH 7.5) containing 200 mM NaCl. The effect of Ac-PheNH2 on the molecular weight of His6-E6AP ligase was determined in 50 mM Tris-HCl (pH 7.5) containing 200 mM NaCl, 16 μM His6-E6AP ligase total protein, 61 mM Ac-PheNH2, and 8% (v/v) carrier methanol. The molecular weight of E6AP ligase was also evaluated in reactions containing 0-350 μM Ac-NRIRMYSERRITVLYSL (SEQ ID NO: 1) in 50 mM Tris-HCl (pH 7.5), 250 mM NaCl, 1 mM DTT, and 17 μM His6-E6AP. Data were analyzed with Dynamics® software at both default and maximum sensitivity to detect the presence of low concentrations of E6AP ligase oligomeric forms.

[2] = target: T2, E6AP ligase (Homo sapiens, UniProt Q05086); assay: E6AP-catalyzed 125I-polyubiquitin chain formation, initial rates; format: biochemical; conditions: for mode of action: with respect to [UbcH7]o
T2 construct: corresponding to full-length GST-E6AP; made in house; host or cells: E. coli
T2 sequence (Q05086 1-872 isoform Q05086-3): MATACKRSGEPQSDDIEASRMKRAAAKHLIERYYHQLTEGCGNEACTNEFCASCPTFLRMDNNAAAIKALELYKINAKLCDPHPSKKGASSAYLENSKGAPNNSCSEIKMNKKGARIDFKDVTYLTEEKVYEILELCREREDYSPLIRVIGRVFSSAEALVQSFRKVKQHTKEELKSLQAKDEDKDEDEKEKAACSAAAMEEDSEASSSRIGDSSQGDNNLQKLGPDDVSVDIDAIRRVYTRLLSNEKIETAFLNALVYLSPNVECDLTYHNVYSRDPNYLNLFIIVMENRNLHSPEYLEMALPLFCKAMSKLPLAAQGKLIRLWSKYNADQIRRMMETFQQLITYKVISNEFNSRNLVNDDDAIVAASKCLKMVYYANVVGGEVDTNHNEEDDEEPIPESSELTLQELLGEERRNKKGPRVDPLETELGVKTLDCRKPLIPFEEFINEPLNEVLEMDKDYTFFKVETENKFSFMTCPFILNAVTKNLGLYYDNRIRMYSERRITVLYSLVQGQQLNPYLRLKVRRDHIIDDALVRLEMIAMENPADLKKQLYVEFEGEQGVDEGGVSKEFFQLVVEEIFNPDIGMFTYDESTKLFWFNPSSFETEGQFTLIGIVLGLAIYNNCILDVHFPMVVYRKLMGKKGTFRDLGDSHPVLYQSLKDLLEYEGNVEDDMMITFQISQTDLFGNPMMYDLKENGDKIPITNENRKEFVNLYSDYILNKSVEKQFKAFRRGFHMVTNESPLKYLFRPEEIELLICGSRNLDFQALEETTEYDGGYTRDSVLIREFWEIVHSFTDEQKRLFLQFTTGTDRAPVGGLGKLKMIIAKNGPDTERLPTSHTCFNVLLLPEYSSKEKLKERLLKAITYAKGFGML
Experimental: (§1) E6AP-catalyzed ^125I-Ubiquitin Conjugation Assay: The E3 ligase activity of recombinant E6AP ligase was quantitated in kinetic assays under initial velocity conditions (Ronchi et al., (2013) J. Biol. Chem. 288, 10349-10360, Ronchi & Haas (2012) Methods Mol. Biol. 832: 197-218). Rates of E6AP-catalyzed ^125I-polyubiquitin chain formation were measured at 37° C. in incubations of 25-μl final volume containing 50 mM Tris-HCl (pH 7.5), 1 mM ATP, 10 mM MgCl2, 1 mM DTT, 10 mM creatine phosphate, 1 IU of creatine phosphokinase, 5 μM ^125I-ubiquitin (approximately 1.5×10^4 cpm/pmol), 50 nM human Uba1, and the indicated concentrations of UbcH7 and E6AP ligase (Siepmann et al., (2003) J. Biol. Chem. 278: 9448-9457; Baboshina et al., (2001) J. Biol. Chem. 276: 39428-39437).
(§2) Reactions were initiated by the addition of ^125I-ubiquitin. After 10-30 min, the reactions were quenched by the addition of 25 μl of 2×SDS sample buffer containing 0.3% (v/v) β-mercaptoethanol, and then the samples were heated to 100° C. for 3 min. The polyubiquitin conjugates were resolved from free ^125I-ubiquitin by 12% (w/v) SDS-PAGE under reducing conditions at 4° C. and visualized by autoradiography of the dried gels.
(§3) Polyubiquitin chain formation was measured by excising lanes between the top of the resolving gel and the top of the stacker gel, representing anchored and free ^125I-polyubiquitin chains, respectively, and quantitating associated ^125I-ubiquitin by γ-counting. Absolute rates of ^125I-polyubiquitin chain formation were calculated from the associated radioactivity and the corrected specific radioactivity for ^125I-ubiquitin. Datum points represent single assay determinations, and complete data sets were evaluated by non-linear regression analysis using GraFit version 5.0 (Erithicus). Active Uba1, E2, and E6AP ligase were independently determined in parallel by their stoichiometric formation of ^125I-ubiquitin thioester.

[3] = test system: E6AP ligase; assay: as above; format: biochemical, Human; conditions: free GST less than 5 μM; GST-E6AP
Experimental: as §1, §2, §3

[4] = target: T3, GST (Schistosoma japonicum, UniProt P08515); assay: GST dimerization; format: binding; conditions: predicted from ΔΔGbinding of GST-E6APΔ495 vs E6APΔ495
[5] = target: T3, GST; conditions: literature value, cited from earlier work
[6] = target: T4, UbcH7˜ubiquitin thioester (Homo sapiens, UniProt P68036); assay: Kinetics of 125I-polyubiquitin chain formation by E6AP ligase forms with respect to [UbcH7]o; format: biochemical
T4 construct: made in house
Experimental: as §1, §2, §3

[7] = Table 1, Hect domain row is monoubiquitination
[8] = non-competitive with respect to [UbcH7]o, His6-E6AP, read-out: Ki

T4 sequence (P68036 whole entry, other chains not shown): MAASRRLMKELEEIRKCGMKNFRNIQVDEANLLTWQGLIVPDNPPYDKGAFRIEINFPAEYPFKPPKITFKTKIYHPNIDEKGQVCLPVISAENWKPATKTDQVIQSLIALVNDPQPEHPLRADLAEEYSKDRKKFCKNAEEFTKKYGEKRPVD
T3 sequence (P08515 whole entry): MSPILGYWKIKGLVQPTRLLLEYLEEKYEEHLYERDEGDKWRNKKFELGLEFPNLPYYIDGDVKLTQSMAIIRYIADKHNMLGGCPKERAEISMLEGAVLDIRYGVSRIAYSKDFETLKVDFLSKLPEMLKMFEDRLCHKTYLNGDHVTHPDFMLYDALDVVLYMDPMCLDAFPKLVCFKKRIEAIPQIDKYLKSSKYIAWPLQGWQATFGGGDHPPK

**Q.** Which “effect on E6AP ligase oligomer” value [1] does the source give for CC(=O)N[C@@H](Cc1ccccc1)C(N)=O [Ac-PheNH2, N-acetyl-L-phenylalanylamide] here?
**A.** The value was “disrupts trimer formation”.

**Q.** What about the “molecular weight of His6-E6AP ligase peak after addition” value ([1]; 61 mM Ac-PheNH2, 16 μM His6-E6AP, 8% methanol) of the same molecule?
**A.** The value was 104 kDa.

**Q.** And the Ki ([2]; 125I-polyubiquitin chain formation, read-out: Ki)?
**A.** The Ki was 12000 ± 3000 µM.

**Q.** What about the Ki ([2]; His6-E6AP, non-competitive with respect to [UbcH7]o, absence or presence of 44 mM Ac-PheNH2, read-out: Ki) of the same molecule?
**A.** The Ki was 12000 ± 3000 µM.

**Q.** And the “effect on polyubiquitin chain formation” value ([2]; inhibitors, at higher concentrations)?
**A.** Its value is “quantitative inhibition”.

**Q.** And the mode of action [2]?
**A.** The mode of action was “non-competitive inhibitor”.

**Q.** What does the source list for “Ac-NRIRMYSERRITVLYSL [Ac-NRIRMYSERRITVLYSL peptide, Ac-NRIRMYSERRITVLYSL]”?
**A.** effect on E6AP ligase oligomer [1]: promotes dissociation; Ki ([2]; His6-E6AP, hyperbolic dependence, semi-reciprocal plot, read-out: Ki (apparent)): 22 ± 2 µM; mode of action [2]: non-competitive inhibitor

**Q.** With “GST: recombinant free glutathione-S-transferase” as the molecule, how does the “K½ of decrease in initial rate of polyubiquitin chain formation” value [3] read?
**A.** Its value is “approximately 1 μm”.

**Q.** And the “Kd for GST association” value [4]?
**A.** Its value is 1.6 µM.

**Q.** And the Kd ([5]; b128, read-out: Kd for GST dimerization)?
**A.** Its Kd is 0.6 µM.

**Q.** And the “Kd for GST association, published value” ([5]; b130)?
**A.** The value was 0.6 µM.

**Q.** What does the source list for “Homogeneous His6-E6AP: baculoviral-expressed full-length His6-E6AP ligase”?
**A.** Km [6]: 0.046 ± 0.007 µM; kcat [6]: 0.63 ± 0.03 s⁻¹; kcat higher than heterogeneous GST-E6AP [6]: 20 fold; kcat ([6]; Table 1): 6.3 ± 0.3 × 10^−1 s^−1; Km [6, 7]: 0.046 ± 0.007 µM

B1: GST-E6AP ligase Hect domain: GST fusion of E6AP ligase Hect domain residues 450-852 (protein, UniProt Q05086 450-852, looked up, fragment)
chain: INEPLNEVLEMDKDYTFFKVETENKFSFMTCPFILNAVTKNLGLYYDNRIRMYSERRITVLYSLVQGQQLNPYLRLKVRRDHIIDDALVRLEMIAMENPADLKKQLYVEFEGEQGVDEGGVSKEFFQLVVEEIFNPDIGMFTYDESTKLFWFNPSSFETEGQFTLIGIVLGLAIYNNCILDVHFPMVVYRKLMGKKGTFRDLGDSHPVLYQSLKDLLEYEGNVEDDMMITFQISQTDLFGNPMMYDLKENGDKIPITNENRKEFVNLYSDYILNKSVEKQFKAFRRGFHMVTNESPLKYLFRPEEIELLICGSRNLDFQALEETTEYDGGYTRDSVLIREFWEIVHSFTDEQKRLFLQFTTGTDRAPVGGLGKLKMIIAKNGPDTERLPTSHTCFNVLLLPEY
modifications: HECT domain GST fusion
**Q.** Which Km [6] does the source give for B1 here?
**A.** Its Km is 0.089 ± 0.011 µM.

**Q.** What about the “kcat lower than full-length E6AP ligase” value [6] of the same molecule?
**A.** Its value is 2000 fold.

**Q.** What about the kcat ([6]; Table 1) of the same molecule?
**A.** Its kcat is 3.2 ± 0.1 × 10^−4 s^−1.

**Q.** What about the Km [6, 7] of the same molecule?
**A.** The Km was 0.089 ± 0.011 µM.

B2: E6(HPV16)Ct: recombinant E6 C-terminal domain encompassing residues 89-158 (protein, UniProt P03126 89-158, looked up, fragment)
chain: SLYGTTLEQQYNKPLCDLLIRCINCQKPLCPEEKQRHLDKKQRFHNIRGRWTGRCMSCCRSSRTRRETQL
**Q.** What does the source list for B2?
**A.** Ki [2, 8]: 4 µM; mode of action [2]: non-competitive inhibitor

B3: E6(HPV16)Δ91: recombinant E6 N-terminal domain encompassing residues 1-91 (protein, UniProt P03126 1-91, looked up, fragment)
chain: MHQKRTAMFQDPQERPRKLPQLCTELQTTIHDIILECVYCKQQLLRREVYDFAFRDLCIVYRDGNPYAVCDKCLKFYSKISEYRHYCYSLY
**Q.** Which results are given for B3?
**A.** Ki ([2]; hyperbolic concentration dependence, not shown, read-out: apparent Ki): 4 µM; Ki [2, 8]: 6 µM; mode of action [2]: non-competitive inhibition

Reference: US9725708B2, “Methods of modulating ubiquitin ligase activity” (Board of Supervisors of Louisiana State University and …, priority 2012, dated 2017)
